Measured values from the domain aggregation screens of Martell et al. (2025).

Assay: soluble fraction after stress (log2 fold change); higher = more stays soluble; pooled small domains, quantitative proteomics
Settings: stress: pH 4
Outline: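 Values are on a log2 scale, where higher means more of the domain stayed soluble after pH 4 stress. They are fold changes in the soluble amount of each domain from pooled custom libraries, measured by high-throughput quantitative proteomics. The fold change is taken to reflect aggregation propensity.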

Sequence	soluble fraction (log2)
HMSVDVEGNQRIPTEQVLSELRDVGVSFGKRVSGLNADTIRNQMIINNDEIAWLGVNVRGSRVYVEITERI	-0.0219
HMSDLVATKEQVVEAYKYGLGLGLDNSTLKMLLFDIRGEDVADQDKISDGMTVSEIEIWKEGMRTIAEEYL	-1.07
HMNEQVAVVSGSQVNVRSGPGTTSAVVGQVSKGDNLPVLNQSGDWYQIKLPGGNAGWVAGWLVSLRPTT	0.237
HMRDITAQSNASELYFEERDLEAFIEKLERLYPEIRYVNRLMIHSWGQQVVRFFDPDGNLIEVGTP	-1.28
HMSMPEVLSDRELEIFRMIGTGMSTGDIAKKLNISVNTIESHRKKIKDKLGIQKGSELVKAAVQWVSTQQ	-0.219
HMDDILAYEIEDKEDLENLSLGKSIGINLNKLIKPTLNSFDNSLLFLSKKGNIISYGKLNGDLFKPKKVL	-0.454
HMPAASDALAGELAQIARLDIAKLLAGDLSEADWSRITSATVQLSERHPDASDELTALVERIDTAYSARAT	-1.32
HMGGPRDVPYSTFLIEVEKGQVAEVTIQDHKITGTYKNSNEPFITNAPDDPDLVSRLIKYGVGVQAKPPE	0.0182
HMLQQNRAVEAEQLARKGLSYAQSNIQQAALWRLVAEATEQQGKVDAALNAKNKAMQLEMAG	0.353
HMLDSNILTLIKELKIRHHFTATQTHQLEKVIQQAHALGLDNSEIRSLANSSPSAKSLINDLNQKLEPLRL	≥ 0.43
HMFLPETEVKSFFHRGITKISPSLAMDIADFFRMPFAVILKRALALEVISDEQYRSFMTVKPEHV	-0.0531
HMPRPRIHSVVRGDTLYGISRQYGVAMSKLASLNGLKSPYRIMVGRSLRLPSAIEAERDRTAREVVQ	0.208
HMTGINMSYEEYKAMADIIVPLIKAGHSPYHIVTNHPELNISEKTLYNYIENGIFREFGLLDINL	-1.91
HMAEVIYGAGKTPAQMLGILRTMQAHGQKTVLITRLREEAAEEIGREIPLQYDKTAGVGIVGTLPQPDG	-0.0513
HMQPSQTLSATVEFPDRLDRFLALAFPEVSRARFQRLIAEGHVSVEGVPATEIRHKLKAGQRVEAVIPPA	0.197
HMADLKVGFVHRAGSVLERELDDVLEALEMYRSALAIDPSHKPSLDALTRISQLADYREQAAEILEPLPR	-1.04
HMERFVVISKDKYANLREEASTNSKVLAKVDNSYLIYNTNTYNENKDWYSVQIERDGNYYQVGYIHKSQL	-1.82
HMTEKIRLTVDEAGKNQRVDKYISTLLTQFSRSSIKTWIETGNILLDNTRTKPRTLLSPGQVIDIQPRFED	-0.144
HMDPEEETLKNMQRMLQDSGPLKKTEFSLLAKSLGIAEKKARKLIDRGRGRFWTVESGEQKNTQLVTPIQ	-0.261
HMEQIFTELIMDGRVLGENLHRMGVDETWLLRQLRQQGYHSAREVFLAVADANKQVAVYPVS	-0.776
HMGFAPEAAREEVAQLIGQRGRAVTVLRPSGQVEIAGRRFEATVEVGAVDAGDTIVVRGQTAFALLVEKAD	0.0812
HMAEPLYKQVKNKIIQNLTSDEWKPGSVIPSETKLAETYGVGVSTIRMAIGELVAARILIRRQGKGTFVSS	0.238
HMTAPDDFIRAEVTASGKNGMAVAELSKRVRTRFKSFKVRELGYPHLAGYLADVEGVRVYKQGRENWVAK	-0.241
HMKKATYDVMVREALVSFKKKGATLQSIKKKIKADYAIEANATAVKSAIQKGMEAGSIRKSYDLYFFMD	0.15
HMVKKYEKVKEYLLERILDGTYVPDLPIPPERELASLLDVNRMTVRRAVEELMYDGYLIRKKGSGTYLTR	-0.2

Sequence	soluble fraction (log2)
HMGQDGFIGLEAAKKLVLQKLGLTSAEFIKAELDAEDRKYELELIVDGIEYDFDIDAYSGAFLKQEQETV	0.122
HMSDIATLVPGPTDAELAASALRGLDAALDADTPVRLSLGEPGGEVEVPRSVLAALARVLDSFAHGEGVTL	-0.443
HMKLTTRQTEIINIVKAEQPISGEKIAQNLGLSRATLRNDLSILTMTGLLDAKPKVGYFYTGQ	0.0805
HMGYPGLGSIGSKPLGDLLFQSKLFVKTKREFAEFKMANNNIVWGRRTQYLVRNYPLSVMEVFL	-0.348
HMNLVELKHAEEFNTLIIQDIGGRMKPAHTLASELVRKVFHNDDFNGIDPRKVFLSIIENSKVWFNVPFI	-0.361
HMPKYLNIYHELAQRIQEGALPAETKLPSETELMQEFEASRGTVRKAIDALQEKGFVRKHQGKGVFVLSQ	0.152
HMPTPRVPMSKQRQILQLLQDGHLSTREIAAALHISKTSVGDIAKAARLAGLDWEAASKLSDEELSARIYK	0.0991
HMTSIISLAKARSIALQKVPGATSKNIHLSLDDEDDKQVYEGEIKYKQMEYVFEIDAKTGTFLKWTSERD	0.185
HMVTKQKKLVLTIIERSHGHLSAEEIFFRAREEMPNIALGTVYRNLNSLTEEGIVRRITLPGTSDRFDT	-0.506
HMAFDGIVLKNITNALKELINGKINKIQQSSKDNLTLSIYNQKSYNLYIDISANNYRVNLTTHSE	0.22
HMIGERIKRARAAAGLSMQALGKQVGISANMVKKYEHDQSMPSSGVLLKLATALSVRTEYFFRPA	-0.0616
HMTSKTLSAVEGEGLRLDKFLSNQLPELSRTKIQKMINDGLVFVNNTEAKASLILDGSEFIAYTVPD	-0.0789
HMIFEEDILKEFRGSLIFITHDRRFLDNIATRIIELDRGKLLSFPGNFSAYKKAKNEQLANEAVENA	-1.17
HMDSYSILGIEKESSMEDIEKAYIDKISKIKKEVKNEKNAAAFEAVLTKAYNDILSQKENISEEQELAE	0.22
HMADASVTAYFKIAEDRLQGRLPDTFSEASLKARYQLTPAQLTAVLTRIAQEGWAERKPGYGWAFSSML	-1
HMAVKYTKDDFLYTEKPYEAIYDYKNDPFMHNLKIEQMAQQAAEVGVKTFKGLYKNYVKMREMQRGANV	0.0966
HMSNYIVELSSSEKIDDIDNNNNLINSFFSKSDSQWEYKLVFKNKNEMDVFVKKISTNNKIISYKTSS	-0.106
HMSVIKERLTEFLTYKGIGQIKFAEAAGLSRGFVNVLGDGISSKSLNKISQAFPELNTLWLTTGEGEML	-0.061
HMTDFDPDGREKLIKVQKALHFNNHQLADALRVGQATFSSYIYGRVAAGVPVRVVKAAEDLLKNSKATV	0.146
HMEVNLEPLIALLRKHRDLDLSGYSKSTLGRRITYFMGLNKISSIDELGRRLAEDDLLFQEFLDKLT	-0.818
HMYSDERLQTFMELLPFFVEELSNKHVTRYNVWQNYREAYPNGYGRSQFFFHLGQNLEAKKK	-0.0353
HMPRVSIEKIKKVVELLKHNPDYTYSKIGNIVGIGRKTVSGINNGKLYTDLVEELGINEFPI	0.0348
HMSFVAYEEEKAIGMVRLIGDGGMSFYIKDFAVLPGHQGKGVGQMLLMELQQYLLEHKPADWAVSLE	-1.47
HMAPRLTERERQVLQLIAEGLTSMQIGDRLHIAASTVDVHRRNLMRKLDLHNVADLTRYAITQGISP	0.00348
HMAFDYETYQLTSREFSIIELVADGRSNREIAEALYLGEGTVRNYLSSILEKLELRDRTQLAVFFYQHL	-2.34

Sequence	soluble fraction (log2)
HMGSGVNVTVNGKRMNLPLKDDHIIFVDIFNYIDFDLSKPKGSIVLKLNGRDAGYTDPIKDGDVIDIYWQ	-0.686
HMIKRETNDNPVDPASLSLGDRVKILTLNQNGEIISLPDEKGLLQVQVGIMKIGVNVSDIMLI	-0.413
HMNADSLIGENIRISERVSNMDQTGMAVVHGQEWTVRTRNDNEIIEPGEEAKILAISGVKLIVEK	-0.0665
HMSGSGYAYVDKYGYSHVVKDYDTAKNYASDGNVYNYSGSHKGGYAYDADNYRVPLDLPGSKPYG	-0.183
HMTDLVVGLAGITLEPLRPAGKAEFNGSVVDVVSLGDYIEKSTAIQIVEIEGNRIVVHHGED	-1.09
HMPSSIEGIEKYLGSGMIRGIGAVYAKRLVKQFGKDVFDIIEETPERLREVEGIGPIRAARIISGWADQ	-0.154
HMQTGYHVRITASTLNVRRDHSASSAVATQVRRGEVYTIVDEYNNGGTLWGKLKSGAGWIALKYTQS	≥ 0.43
HMNNQIFGLKFRQLRKQQHITLAKAAAGITSRQSLGNWETGKGELAFEKVLLLLKKINVQPIDFLESSIS	0.264
HMKQPNSYGSVHKLPGKRRKPWRVRKTSGWLLDEQSGTVKQQYITIGYYATKQEALIALADYNENP	-0.434
HMIDEQDLKKYILISTSVEELTDYLGATDRMLYDYLYSLKHVGQYWQLNERFLLDLYKLPNLVIVDKEDLE	-0.351
HMGNKWKPIILYLLSNGSMRFGMLNALIPTISKKVLTNQLKELENDGLLLRQSFAEIPPRVEYSLTEKA	0.165
HMSQQVVTDGVNLRLRYAPSPDAETYKWADGTNRHPEKGERFPYLGDIGDFYRIDYKGLVLYVSKQHTHL	-0.34
HMRGADNAASILKEVGPHPEDGKPITVRSGRYGPYVKHGTTNATLPKDIKPEEITLDEAIALINERVAKG	-0.143
HMYPIYDYISNMYLGKHLNAGMSLEEARGIMDEMLEKLLFDVPEEYHIDRDHFYEYLKKYYTERFSA	-1.7
HMHLRYTYIYDNENRVTSKEASKWDSTQEAWVPYFKMNVSYVNNEVELSYARWNSKSNAYDSSIKKTI	-0.66
HMKGISRVTMELIIDALKKETEPRTVQWIAEKTGLATQTTYRYLQYMVSEQTVEALNVYGKVVSLKAK	0.153
HMRILDFPALKTEFDQLTKDLMAKYPEDGADRVRAIIETVLGPGKKVGALQPHQAELLAEVNTSLKANL	-0.0969
HMISFHEYLTQLLDEKGLTKAQVITDSNIQKNYGYQIFDGSKTPSRDKVIAIALAMQLTLDEANRLLHLSN	-0.618
HMNESPVLAVLTPTERKVASLVAEGLTNQAIAARMILAEGTVKNHVSTLLHKLQAPDRTALALTLYKAFQ	0.165
HMSALTELPVKTVNGKKYHYYVVKQHETVYALSKRFGITPEQLIKYNPSAEDGLQIDQELLFPATEI	-0.282
HMFTNSTSSRQLTNSDDTLRLNISSQTRQMLPNGQPFGGSLSGKLLLVIYGATTRSIPAQTTPEKIVV	0.105
HMLNLNILTDKEKFIAKLISRGLSDSLIAKELYISISTVRSHVNSIYGKTNIKNRSHLASSFLYFELGNLL	-0.0771
HMDLPRQSQYQALVVSYARRAGIDEAEEDLLAAFEVWRMRHNHDLAGGRTARDFILAYLPQYQRHKE	-0.59
HMSTLSIHIPDKFAGQRLDQALAELYSQFSRSRLQQWLNDGELLVDGKSVKANKKVLGGEFIQILK	-0.00612
HMFISVDGLIHMGRTHLVILGGVEFARGDMIPETGEVVKSIGADSVVLELPDTGMRRTLNFV	-1.91
